Earlier results on one substance are cited in publication PMC12930849.

Values joined by “and” are separate entries in the source; they are usually repeats but may differ in a detail not shown here. Equal values may be shown once.

Among the targets are Asp101 (UniProt position 119, KKIVSDGNGMN); Asp119 (UniProt position 137, RCKGTDVQAWI); Asp18 (UniProt position 36, KRHGLDNYRGY); Asp52 (UniProt position 70, TDGSTDYGILQ); Asp87 (UniProt position 105, ALLSSDITASV); Cterm (UniProt position 147, IRGCRL-----); Glu35 (UniProt position 53, CAAKFESNFNT); Glu7 (UniProt position 25, VFGRCELAAAM); His15 (UniProt position 33, AAMKRHGLDNY).

Assay in all cases: NMR

In the case of “Hen egg-white lysozyme (lysozyme C) (Gallus gallus)”, the pKa (usually the negative logarithm of the acid dissociation constant) with Asp101 was 4.09 ± 0.07 and 4.5 ± 0.1; in the data set with Asp119 it was 3.20 ± 0.09 and 3.5 ± 0.3; with Asp18, 2.66 ± 0.08 and 2.8 ± 0.3; in the data set with Asp52, 3.68 ± 0.08 and 3.6 ± 0.3; in the data set with Asp87, 2.07 ± 0.15 and 2.2 ± 0.1; with Cterm, 2.75 ± 0.02 and 2.7 ± 0.2. The pKa with Glu35 was 6.20 ± 0.10 and 6.1 ± 0.4; in the data set with Glu7, 2.85 ± 0.25 and 2.6 ± 0.2; in the data set with His15, 5.36 ± 0.07 and 5.5 ± 0.2.
